Two molecules from paper PMC8420505 (2021) can be followed below.

As a reminder, the Kd is the equilibrium constant for the complex coming apart.

The target in this experiment is Spike (SARS-CoV-2, UniProt P0DTC2). As to the kind of experiment: SPR. Background: In SPR one partner is held on a chip, and binding of the other changes the refractive index at the surface.

B1: CD209c (protein)
chain: MRMHTRLQFLKRVSNVAYSHGQEQAKKEKVYKEMTQLKSQINRLCRPCPWDWTVFQGNCYFFSKFQQNWNDSVNACRKLDAQLVVIKSDDEQSFLQQTSKEKGYAWMGLSDLKHEGRWHWVDGSHLLFSFMKYWNKGEPNNEWEEDCAEFRGDGWNDAPCTIKKYWICKKSAMSCTEK
Consider B1, for which the Kd came to 1000 nM.

B2: Clec4g (protein)
chain: MNTGEYNKLGSAIEEVSRGQLGRWECYKQRLFFLVLALLVATVLWALILSTLLSSASSKLRVLLSHQDLLRTNASEQKMTLSSLKDDIGACRNCCSVTKAQLQTTLAEFKDIQAKLMEQESILKELQERVTQDLAKASRDRENIRSELFQALEAVKRQNSSCEQCPPSWLPFQGSCYYFSETQATWDTAQSYCGGQGAHLVIVRGLNEQGFLSQHTRGRGYWLGLRAVRHLNKIQGYRWVDGASLNFSHWNSGEPNDSRGHEDCIMMLHSGLWNDAPCTNERDGWICEKRSSCY
Molecule B2 came in with a Kd of 1600 nM.
